According to publication PMC8437434:

What was measured:
[1] = target: tau^4R (residues 244-372, C322A) (UniProt P10636)
[2] = target: tau^4R (residues 244-372, C322A) (UniProt P10636); remark: listed apart in the source

tau^4R (residues 244-372, C322A), sequence (P10636 561-689 C639A): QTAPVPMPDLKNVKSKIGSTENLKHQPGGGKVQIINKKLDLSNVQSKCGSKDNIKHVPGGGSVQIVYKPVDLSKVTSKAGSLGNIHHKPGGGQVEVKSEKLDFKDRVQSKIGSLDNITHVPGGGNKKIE

Substance | reduction of tau fibril mass (kinetic measurements) at equimolar HSPB1:tau [1] | reduction of tau fibril mass (unnormalised ThT kinetics) at 1:1 HSPB1:tau [2] | reduction of tau fibril mass (unnormalised ThT kinetics), DNAJB1:tau 0.5:1 (67%) to 1:1 [2]
HSPB1 3D GXG variant (S15D, S78D, S82D, I181G, V183G) (from UniProt P04792 1-205) (natural protein) | 45% | 47% | 
full-length DNAJB1 (from UniProt P25685 1-340) (natural protein) |  |  | 94%
